“And” between values parts separate entries of the source, which are not always exact repeats. Equal entries are not always repeated. Where two headings read alike, the source gives them in different places.
Experiments:
[1] = target: DENV2 sE WT (Dengue virus 2 strain 16681) (UniProt P29990); test: nanoDSF Van't Hoff, homodimer, 37 C; set-up: TΔS°bind: unit not given here
[2] = target: DENV2 sE HCat3, displayed on EXPI293F cells (Dengue virus 2 strain 16681); test: flow cytometry, displayed sE, 40 C
[3] = target: DENV2 sE IntFc2, displayed on EXPI293F cells (Dengue virus 2 strain 16681); test: flow cytometry, displayed sE, 40 C
[4] = target: DENV2 sE IntFc8, displayed on EXPI293F cells (Dengue virus 2 strain 16681); test: flow cytometry, displayed sE, 40 C
[5] = target: DENV2 sE PM2, displayed on EXPI293F cells (Dengue virus 2 strain 16681); test: flow cytometry, displayed sE, 40 C
[6] = target: DENV2 sE PM4, displayed on EXPI293F cells (Dengue virus 2 strain 16681); test: flow cytometry, displayed sE, 40 C
[7] = target: DENV2 sE SHP1, displayed on EXPI293F cells (Dengue virus 2 strain 16681); test: flow cytometry, displayed sE, 40 C
[8] = target: DENV2 sE SHP2, displayed on EXPI293F cells (Dengue virus 2 strain 16681); test: flow cytometry, displayed sE, 40 C
[9] = target: DENV2 sE UndPk6, displayed on EXPI293F cells (Dengue virus 2 strain 16681); test: flow cytometry, displayed sE, 40 C
[10] = target: DENV2 sE Cm1, displayed on EXPI293F cells (Dengue virus 2 strain 16681); test: flow cytometry, EXPI293F surface display, 40 C
[11] = target: DENV2 sE Cm2, displayed on EXPI293F cells (Dengue virus 2 strain 16681); test: flow cytometry, EXPI293F surface display, 40 C
[12] = target: DENV2 sE HCat3, displayed on EXPI293F cells (Dengue virus 2 strain 16681); test: flow cytometry, EXPI293F surface display, 40 C
[13] = target: DENV2 sE IntFc2, displayed on EXPI293F cells (Dengue virus 2 strain 16681); test: flow cytometry, EXPI293F surface display, 40 C
[14] = target: DENV2 sE IntFc6, displayed on EXPI293F cells (Dengue virus 2 strain 16681); test: flow cytometry, EXPI293F surface display, 40 C
[15] = target: DENV2 sE IntFc8, displayed on EXPI293F cells (Dengue virus 2 strain 16681); test: flow cytometry, EXPI293F surface display, 40 C
[16] = target: DENV2 sE Mnmer1, displayed on EXPI293F cells (Dengue virus 2 strain 16681); test: flow cytometry, EXPI293F surface display, 40 C
[17] = target: DENV2 sE Mnmer2, displayed on EXPI293F cells (Dengue virus 2 strain 16681); test: flow cytometry, EXPI293F surface display, 40 C
[18] = target: DENV2 sE PM2, displayed on EXPI293F cells (Dengue virus 2 strain 16681); test: flow cytometry, EXPI293F surface display, 40 C
[19] = target: DENV2 sE SHP1, displayed on EXPI293F cells (Dengue virus 2 strain 16681); test: flow cytometry, EXPI293F surface display, 40 C
[20] = target: DENV2 sE SHP2, displayed on EXPI293F cells (Dengue virus 2 strain 16681); test: flow cytometry, EXPI293F surface display, 40 C
[21] = target: DENV2 sE UndPk6, displayed on EXPI293F cells (Dengue virus 2 strain 16681); test: flow cytometry, EXPI293F surface display, 40 C
[22] = target: DENV2 sE WT, displayed on EXPI293F cells (Dengue virus 2 strain 16681); test: flow cytometry, EXPI293F surface display, 40 C
[23] = target: DENV2 sE Cm1, displayed on EXPI293F cells (Dengue virus 2 strain 16681); test: flow cytometry, EXPI293F surface display, RT (~23 C)
[24] = target: DENV2 sE Cm2, displayed on EXPI293F cells (Dengue virus 2 strain 16681); test: as above
[25] = target: DENV2 sE HCat3, displayed on EXPI293F cells (Dengue virus 2 strain 16681); test: as above
[26] = target: DENV2 sE IntFc2, displayed on EXPI293F cells (Dengue virus 2 strain 16681); test: as above
[27] = target: DENV2 sE IntFc6, displayed on EXPI293F cells (Dengue virus 2 strain 16681); test: as above
[28] = target: DENV2 sE IntFc8, displayed on EXPI293F cells (Dengue virus 2 strain 16681); test: as above
[29] = target: DENV2 sE Mnmer1, displayed on EXPI293F cells (Dengue virus 2 strain 16681); test: as above
[30] = target: DENV2 sE Mnmer2, displayed on EXPI293F cells (Dengue virus 2 strain 16681); test: as above
[31] = target: DENV2 sE PM2, displayed on EXPI293F cells (Dengue virus 2 strain 16681); test: as above
[32] = target: DENV2 sE PM4, displayed on EXPI293F cells (Dengue virus 2 strain 16681); test: as above
[33] = target: DENV2 sE SHP1, displayed on EXPI293F cells (Dengue virus 2 strain 16681); test: as above
[34] = target: DENV2 sE SHP2, displayed on EXPI293F cells (Dengue virus 2 strain 16681); test: as above
[35] = target: DENV2 sE UndPk6, displayed on EXPI293F cells (Dengue virus 2 strain 16681); test: as above
[36] = target: DENV2 sE WT, displayed on EXPI293F cells (Dengue virus 2 strain 16681); test: as above
[37] = nanoDSF melting, homodimer dissociation, 4.0 µM
[38] = target: DENV2 sE PM4, displayed on EXPI293F cells (Dengue virus 2 strain 16681); test: flow cytometry, EXPI293F surface display, 40 C

| Substance | Fluorescence Ratio (Fr, Var/WT) [11] | Fluorescence Ratio (Fr, Var/WT) [12] | Fluorescence Ratio (Fr, Var/WT) [13] | Fluorescence Ratio (Fr, Var/WT) [14] | Fluorescence Ratio (Fr, Var/WT) [15] | Fluorescence Ratio (Fr, Var/WT) [16] | Fluorescence Ratio (Fr, Var/WT) [17] | Fluorescence Ratio (Fr, Var/WT) [18] | Fluorescence Ratio (Fr, Var/WT) [19] | Fluorescence Ratio (Fr, Var/WT) [20] | Fluorescence Ratio (Fr, Var/WT) [21] | Fluorescence Ratio (Fr, Var/WT) [22] | Fluorescence Ratio (Fr, Var/WT) [23] | Fluorescence Ratio (Fr, Var/WT) [24] | Fluorescence Ratio (Fr, Var/WT) [25] | Fluorescence Ratio (Fr, Var/WT) [26] | Fluorescence Ratio (Fr, Var/WT) [27] | Fluorescence Ratio (Fr, Var/WT) [28] | Fluorescence Ratio (Fr, Var/WT) [29] | Fluorescence Ratio (Fr, Var/WT) [30] | further results |
| --- | --- | --- | --- | --- | --- | --- | --- | --- | --- | --- | --- | --- | --- | --- | --- | --- | --- | --- | --- | --- | --- |
| DENV2 sE WT (from UniProt P29990 281-677) |  |  |  |  |  |  |  |  |  |  |  |  |  |  |  |  |  |  |  |  | Kd [1]: 13 µM; TΔS°bind [1]: -67.1; ΔG°bind [1]: -6.9 kcal/mol; ΔH°bind [1]: -74.1 kcal/mol |
| 2D22 (antibody) | 4.4 | 2.8 | 2.5 | 0 | 4.4 | 0 | 0.8 | 2.8 | 4.4 | 3.1 | 4.9 | 1 | 0.8 | 1.9 | 1.6 | 1.3 | 1 | 2.5 | 0.5 | 2.8 | Fr (geometric mean fluorescence intensity ratio, variant/WT) [2]: > 2 fold; Fr (geometric mean fluorescence intensity ratio, variant/WT) [3]: > 2 fold; Fr (geometric mean fluorescence intensity ratio, variant/WT) [4]: > 2 fold; Fr (geometric mean fluorescence intensity ratio, variant/WT) [5]: > 2 fold; Fr (geometric mean fluorescence intensity ratio, variant/WT) [6]: > 2 fold; Fr (geometric mean fluorescence intensity ratio, variant/WT) [7]: > 2 fold; Fr (geometric mean fluorescence intensity ratio, variant/WT) [8]: > 2 fold; Fr (geometric mean fluorescence intensity ratio, variant/WT) [9]: > 2 fold; Fluorescence Ratio (Fr, Var/WT) [10]: 1.6; Fluorescence Ratio (Fr, Var/WT) [31]: 2.5; Fluorescence Ratio (Fr, Var/WT) [32]: 3; Fluorescence Ratio (Fr, Var/WT) [33]: 3; Fluorescence Ratio (Fr, Var/WT) [34]: 2.4; Fluorescence Ratio (Fr, Var/WT) [35]: 2.7; Fluorescence Ratio (Fr, Var/WT) [36]: 1 |
| DENV3 sE WT |  |  |  |  |  |  |  |  |  |  |  |  |  |  |  |  |  |  |  |  | Tm^1 (Dimer Dissociation) [37]: < 15 ° C.; ΔTm^1 (Var-WT) [37]: 0 ° C. |
| EDE1 C8 (antibody) |  |  |  |  |  |  |  |  |  |  |  |  | 0.9 | 1.7 | 1.9 | 1.3 | 1.3 | 3.3 | 0.7 | 2.7 | Fluorescence Ratio (Fr, Var/WT) [31]: 2.4; Fluorescence Ratio (Fr, Var/WT) [32]: 3.2; Fluorescence Ratio (Fr, Var/WT) [33]: 2.9; Fluorescence Ratio (Fr, Var/WT) [34]: 2.3; Fluorescence Ratio (Fr, Var/WT) [35]: 2.3; Fluorescence Ratio (Fr, Var/WT) [36]: 1 |
| 3H5 (antibody) | 0.6 | 0.6 | 0.6 | 0 | 0.4 | 0 | 0.8 | 0.5 | 0.5 | 0.5 | 0.4 | 1 | 0.5 | 0.4 | 0.7 | 0.8 | 0.6 | 0.5 | 0.3 | 0.8 | Fluorescence Ratio (Fr, Var/WT) [10]: 0.6; Fluorescence Ratio (Fr, Var/WT) [38]: 0.4; Fluorescence Ratio (Fr, Var/WT) [31]: 0.7; Fluorescence Ratio (Fr, Var/WT) [32]: 0.8; Fluorescence Ratio (Fr, Var/WT) [33]: 0.7; Fluorescence Ratio (Fr, Var/WT) [34]: 0.6; Fluorescence Ratio (Fr, Var/WT) [35]: 0.8; Fluorescence Ratio (Fr, Var/WT) [36]: 1 |
| DENV2 sE WT |  |  |  |  |  |  |  |  |  |  |  |  |  |  |  |  |  |  |  |  | Tm^1 (Dimer Dissociation): 35.9 ° C. and 34.2 ° C. and 32.1 ° C. |
| 1C19 (antibody) | 1.6 | 2.5 | 2.5 | 0 | 3.5 | 0 | 0.8 | 2.5 | 1.8 | 1.9 | 2.9 | 1 | 0.9 | 0.6 | 1.5 | 1.4 | 0.8 | 2 | 0.2 | 0.8 | Fluorescence Ratio (Fr, Var/WT) [10]: 3.2; Fluorescence Ratio (Fr, Var/WT) [38]: 3.1; Fluorescence Ratio (Fr, Var/WT) [31]: 1.7; Fluorescence Ratio (Fr, Var/WT) [32]: 2.1; Fluorescence Ratio (Fr, Var/WT) [33]: 1.3; Fluorescence Ratio (Fr, Var/WT) [34]: 1.2; Fluorescence Ratio (Fr, Var/WT) [35]: 2.4; Fluorescence Ratio (Fr, Var/WT) [36]: 1 |
| EDE1 C10 (antibody) | 3.8 | 3 | 3.4 | 0 | 5.9 | 0 | 0.1 | 3.7 | 5.6 | 3.8 | 4.1 | 1 |  |  |  |  |  |  |  |  | Fr (geometric mean fluorescence intensity ratio, variant/WT) [2]: > 2 fold; Fr (geometric mean fluorescence intensity ratio, variant/WT) [3]: > 2 fold; Fr (geometric mean fluorescence intensity ratio, variant/WT) [4]: > 2 fold; Fr (geometric mean fluorescence intensity ratio, variant/WT) [5]: > 2 fold; Fr (geometric mean fluorescence intensity ratio, variant/WT) [6]: > 2 fold; Fr (geometric mean fluorescence intensity ratio, variant/WT) [7]: > 2 fold; Fr (geometric mean fluorescence intensity ratio, variant/WT) [8]: > 2 fold; Fr (geometric mean fluorescence intensity ratio, variant/WT) [9]: > 2 fold |
